This is an account of results in patent US20250164508A1, “G-PROTEIN COUPLED RECEPTOR ASSAY” (The Regents of the University of Michigan, priority 2022, published 2025).

Square brackets hold non-standard residues; d marks the D form. Ends that are not written are not given here. Cha = N[C@@H](CC1CCCCC1)C(=O)O

The target in test [1] is MOR-SmBit (Mu-opioid receptor with SmBit attached to the C-terminus) (UniProt P35372). Description: in-solution split NANOLUC complementation, co-expressed components, with and without loperamide.
Sequence of MOR-SmBit (Mu-opioid receptor with SmBit attached to the C-terminus) (P35372 1-400, tags or fused parts left off): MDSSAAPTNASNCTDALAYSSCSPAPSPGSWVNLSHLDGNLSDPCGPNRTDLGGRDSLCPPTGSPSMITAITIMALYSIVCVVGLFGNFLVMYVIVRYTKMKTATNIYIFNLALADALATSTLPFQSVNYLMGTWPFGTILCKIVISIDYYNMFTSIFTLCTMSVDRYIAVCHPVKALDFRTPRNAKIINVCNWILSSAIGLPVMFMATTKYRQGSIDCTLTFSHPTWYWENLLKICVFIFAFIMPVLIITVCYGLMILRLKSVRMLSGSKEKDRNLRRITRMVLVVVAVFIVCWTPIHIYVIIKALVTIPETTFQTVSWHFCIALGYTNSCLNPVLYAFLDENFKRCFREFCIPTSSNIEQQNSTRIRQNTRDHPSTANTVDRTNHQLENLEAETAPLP
For test [2] the target is unchanged. Nature of the test: in-solution split NANOLUC complementation, separately expressed components, with and without loperamide.
Test [3] concerns the target β2-adrenergic Receptor (β2AR) (Homo sapiens, UniProt P07550). Nature of the test: β2AR IGNiTR assay (β2AR-LgBiT cell lysate with SmBiT conformation-specific binder). The settings on record: SmBiT-Gs peptidomimetic fusion peptides with β2AR-LgBiT.
The target in test [4] is Melanocortin-4 Receptor (MC4R) (Homo sapiens, UniProt P32245). Description: MC4R IGNiTR assay. The settings on record: Gs fusion peptide 2 μM; drug 10 μM.
Sequence of Melanocortin-4 Receptor (MC4R) (P32245 whole entry, species assumed, the tested form may be a part): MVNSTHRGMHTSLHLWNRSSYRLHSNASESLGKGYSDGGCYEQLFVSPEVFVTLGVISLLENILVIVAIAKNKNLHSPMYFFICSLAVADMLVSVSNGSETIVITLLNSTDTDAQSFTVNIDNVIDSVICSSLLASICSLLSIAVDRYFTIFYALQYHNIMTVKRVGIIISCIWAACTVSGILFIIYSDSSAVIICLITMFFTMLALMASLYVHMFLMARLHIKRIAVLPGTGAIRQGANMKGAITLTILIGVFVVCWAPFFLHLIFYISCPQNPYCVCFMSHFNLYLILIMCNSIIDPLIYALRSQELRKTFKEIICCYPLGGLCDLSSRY
The target in a further test is T1, MOR (Homo sapiens, UniProt P35372).
T1 construct: made in house; host or cells: HEK293 adhesion cells (general method)
T1 sequence (P35372 whole entry): as the sequence (P35372 1-400, tags or fused parts left off) above
In kind it is biochemical. As to conditions: peptidomimetic 35 uM and 28 uM.

Another test deals with μ-opioid receptor (μ-OR) (Homo sapiens, UniProt P35372). Description: μ-OR IGNiTR assay with Gi fusion peptide.
Sequence of μ-opioid receptor (μ-OR) (P35372 whole entry, the tested form may be a part): as the sequence (P35372 1-400, tags or fused parts left off) above
The target in test [5] is B2AR-SmBit (beta-2-adrenergic receptor fused to the SmBit fragment of split NANOLUC) (UniProt P07550). Nature of the test: in-solution split NANOLUC complementation, detergent-extracted B2AR mixed with nanobody lysate, with and without isoproterenol.

“Nb39-LgBit (Nb39 attached to LgBit on the C-terminus) (VHH)”: the fold signal change between (+Lop) and (-Lop) in test [1] turned out to be 3.8 fold; in test [2], 3.2 fold.
“VTGYRLFEEILGSFNDCRDIIQRMHLRQYE-{Cha}-L (VTGYRLFEEILGSFNDCRDIIQRMHLRQYE[Cha]L) [Gs fusion peptide]”: the figures for the “agonist-dependent DDR” value in test [3] and in test [3] (listed as peptide 2) were “significant DDR” and “showed agonist-dependent DDR”, respectively. Further, the DDR significance result in test [4] is recorded as “significant DDRs”.
In the case of “VTGYRLFEEILGSKKKFDAVTDIIIKNNLKDCG[Cha]F [Gi fusion peptide]”, the “binding to the MOR protein” value at MOR was “successful binding”. Moreover, the DDR on μ-opioid receptor (μ-OR) (2 μM peptide, 0.5× μ-OR-LgBiT lysate, around 10 minutes) is on record as approximately 4. Moreover, the DDR significance result at μ-opioid receptor (μ-OR) (Gi fusion peptide with μ-OR) is recorded as “significant DDR”.
For the molecule “VTGYRLFEEILGSKKKFN-C-SRD-C-IQRMHLRQYE-{Cha}-L [peptide 1]”, the “agonist-dependent DDR” value in test [3] is reported as “did not demonstrate agonist-dependence”.

B1: Nb80-LgBit (Nanobody 80 fused to LgBit) (VHH, from another filing)
VHH: QVQLQESGGGLVQAGGSLRLSCAASGSIFSINTMGWYRQAPGKQRELVAAIHSGGSTNYANSVKGRFTISRDNAANTVYLQMNSLKPEDTAVYYCNVKDYGAVLYEYDYWGQGTQVTVSS
In test [5], B1 had a fold signal change between (+Iso) and (-Iso) of 1.9 fold.
